This note sets out measurements from IntAct's records for PubMed 31515488.

First the molecules themselves.
B1: Zinc finger protein 774 (Homo sapiens), Q6NX45 (parent)
chain: MWLGTSGKSGLPGHCLENPLQECHPAQLEEWALKGISRPSVISQPEQKEEPWVLPLQNFEARKIPRESHTDCEHQVAKLNQDNSETAEQCGTSSERTNKDLSHTLSWGGNWEQGLELEGQHGTLPGEGQLESFSQERDLNKLLDGYVGEKPMCAECGKSFNQSSYLIRHLRTHTGERPYTCIECGKGFKQSSDLVTHRRTHTGEKPYQCKGCEKKFSDSSTLIKHQRTHTGERPYECPECGKTFGRKPHLIMHQRTHTGEKPYACLECHKSFSRSSNFITHQRTHTGVKPYRCNDCGESFSQSSDLIKHQRTHTGERPFKCPECGKGFRDSSHFVAHMSTHSGERPFSCPDCHKSFSQSSHLVTHQRTHTGERPFKCENCGKGFADSSALIKHQRIHTGERPYKCGECGKSFNQSSHFITHQRIHLGDRPYRCPECGKTFNQRSHFLTHQRTHTGEKPFHCSKCNKSFRQKAHLLCHQNTHLI
B2: Microtubule-associated tumor suppressor candidate 2 (Homo sapiens), Q5JR59-3 (parent)
chain: MGHCCCKPYNCLQCLDKTNESALVKEKELSIELANIRDEVAFHTAKCEKLQKEKEELERRFEDEVKRLGWQQQAELQELEERLQLQFEAEMARLQEEHGDQLLSIRCQHQEQVEDLTASHDAALLEMENNHTVAITILQDDHDHKVQELMSTHELEKKELEENFEKLRLSLQDQVDTLTFQSQSLRDRARRFEEALRKNTEEQLEIALAPYQHLEEDMKSLKQVLEMKNQQIHEQEKKILELEKLAEKNIILEEKIQVLQQQNEDLKARIDQNTVVTRQLSEENANLQEYVEKETQEKKRLSRTNEELLWKLQTGDPTSPIKLSPTSPVYRGSSSGPSSPARVSTTPR
partner: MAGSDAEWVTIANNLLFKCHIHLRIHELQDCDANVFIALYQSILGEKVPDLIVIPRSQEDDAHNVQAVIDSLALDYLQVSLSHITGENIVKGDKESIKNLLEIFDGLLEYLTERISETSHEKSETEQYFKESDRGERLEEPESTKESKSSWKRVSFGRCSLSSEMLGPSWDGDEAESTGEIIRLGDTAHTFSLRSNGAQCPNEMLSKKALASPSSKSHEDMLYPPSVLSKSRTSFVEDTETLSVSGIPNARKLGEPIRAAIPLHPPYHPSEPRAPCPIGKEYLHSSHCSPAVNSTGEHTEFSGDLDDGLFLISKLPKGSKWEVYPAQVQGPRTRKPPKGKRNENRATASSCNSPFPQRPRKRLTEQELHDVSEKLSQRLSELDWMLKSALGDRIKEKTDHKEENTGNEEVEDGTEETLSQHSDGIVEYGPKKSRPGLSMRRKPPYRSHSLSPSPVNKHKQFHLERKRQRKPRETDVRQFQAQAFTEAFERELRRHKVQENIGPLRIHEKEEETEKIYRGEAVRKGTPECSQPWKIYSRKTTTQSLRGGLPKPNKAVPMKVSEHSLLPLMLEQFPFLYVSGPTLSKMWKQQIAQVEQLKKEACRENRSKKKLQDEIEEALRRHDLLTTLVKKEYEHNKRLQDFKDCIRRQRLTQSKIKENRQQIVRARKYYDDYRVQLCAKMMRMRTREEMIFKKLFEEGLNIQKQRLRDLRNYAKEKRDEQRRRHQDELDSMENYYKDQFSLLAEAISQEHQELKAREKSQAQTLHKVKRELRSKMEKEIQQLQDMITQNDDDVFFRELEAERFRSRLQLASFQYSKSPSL
B3: U3 small nucleolar RNA-associated protein 14 homolog A (Homo sapiens), Q9BVJ6 (parent)
chain: MTANRLAESLLALSQQEELADLPKDYLLSESEDEGDNDGERKHQKLLEAISSLDGKNRRKLAERSEASLKVSEFNVSSEGSGEKLVLADLLEPVKTSSSLATVKKQLSRVKSKKTVELPLNKEEIERIHREVAFNKTAQVLSKWDPVVLKNRQAEQLVFPLEKEEPAIAPIEHVLSGWKARTPLEQEIFNLLHKNKQPVTDPLLTPVEKASLRAMSLEEAKMRRAELQRARALQSYYEAKARREKKIKSKKYHKVVKKGKAKKALKEFEQLRKVNPAAALEELEKIEKARMMERMSLKHQNSGKWAKSKAIMAKYDLEARQAMQEQLSKNKELTQKLQVASESEEEEGGTEDVEELLVPDVVNEVQMNADGPNPWMLRSCTSDTKEAATQEDPEQLPELEAHGVSESEGEERPVAEEEILLREFEERRSLRKRSELSQDAEPAGSQETKDSGSQEVLSELRVLSQKLKENHQSRKQKASSEGTIPQVQREEPAPEEEEPLLLQRPERVQTLEELEELGKEECFQNKELPRPVLEGQQSERTPNNRPDAPKEKKKKEQMIDLQNLLTTQSPSVKSLAVPTIEELEDEEERNHRQMIKEAFAGDDVIRDFLKEKREAVEASKPKDVDLTLPGWGEWGGVGLKPSAKKRRRFLIKAPEGPPRKDKNLPNVIINEKRNIHAAAHQVRVLPYPFTHHWQFERTIQTPIGSTWNTQRAFQKLTTPKVVTKPGHIINPIKAEDVGYRSSSRSDLSVIQRNPKRITTRHKKQLKKCSVD
partner: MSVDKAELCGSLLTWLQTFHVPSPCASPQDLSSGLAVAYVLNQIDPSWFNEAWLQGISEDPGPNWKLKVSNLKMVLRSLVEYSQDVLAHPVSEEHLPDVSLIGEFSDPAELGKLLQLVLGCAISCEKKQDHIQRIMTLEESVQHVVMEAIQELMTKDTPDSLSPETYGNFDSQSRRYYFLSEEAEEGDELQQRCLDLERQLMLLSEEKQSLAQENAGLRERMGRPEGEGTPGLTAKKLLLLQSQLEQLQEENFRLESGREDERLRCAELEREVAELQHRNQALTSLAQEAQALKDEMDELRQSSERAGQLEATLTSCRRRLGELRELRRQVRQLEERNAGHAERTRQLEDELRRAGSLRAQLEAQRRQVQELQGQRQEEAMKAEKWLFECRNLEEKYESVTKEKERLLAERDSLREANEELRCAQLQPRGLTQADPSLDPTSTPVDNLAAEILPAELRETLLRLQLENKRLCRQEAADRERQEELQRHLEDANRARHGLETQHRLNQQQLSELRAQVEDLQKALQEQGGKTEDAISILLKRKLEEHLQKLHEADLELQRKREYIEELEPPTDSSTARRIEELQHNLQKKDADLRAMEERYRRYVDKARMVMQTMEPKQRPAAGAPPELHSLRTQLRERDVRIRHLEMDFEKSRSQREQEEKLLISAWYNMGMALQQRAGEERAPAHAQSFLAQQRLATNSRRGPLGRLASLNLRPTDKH
B4: Mediator of RNA polymerase II transcription subunit 20 (Homo sapiens), Q9H944 (parent)
chain: MGVTCVSQMPVAEGKSVQQTVELLTRKLEMLGAEKQGTFCVDCETYHTAASTLGSQGQTGKLMYVMHNSEYPLSCFALFENGPCLIADTNFDVLMVKLKGFFQSAKASKIETRGTRYQYCDFLVKVGTVTMGPSARGISVEVEYGPCVVASDCWSLLLEFLQSFLGSHTPGAPAVFGNRHDAVYGPADTMVQYMELFNKIRKQQQVPVAGIR
partner: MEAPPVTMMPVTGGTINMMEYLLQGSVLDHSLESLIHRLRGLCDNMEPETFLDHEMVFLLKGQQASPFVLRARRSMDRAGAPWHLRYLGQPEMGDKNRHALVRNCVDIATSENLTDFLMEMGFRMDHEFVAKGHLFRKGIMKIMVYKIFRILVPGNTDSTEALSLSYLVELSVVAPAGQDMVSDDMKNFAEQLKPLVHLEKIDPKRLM
B5: Kelch-like protein 2 (Homo sapiens), O95198 (parent)
chain: METPPLPPACTKQGHQKPLDSKDDNTEKHCPVTVNPWHMKKAFKVMNELRSQNLLCDVTIVAEDMEISAHRVVLAACSPYFHAMFTGEMSESRAKRVRIKEVDGWTLRMLIDYVYTAEIQVTEENVQVLLPAAGLLQLQDVKKTCCEFLESQLHPVNCLGIRAFADMHACTDLLNKANTYAEQHFADVVLSEEFLNLGIEQVCSLISSDKLTISSEEKVFEAVIAWVNHDKDVRQEFMARLMEHVRLPLLPREYLVQRVEEEALVKNSSACKDYLIEAMKYHLLPTEQRILMKSVRTRLRTPMNLPKLMVVVGGQAPKAIRSVECYDFKEERWHQVAELPSRRCRAGMVYMAGLVFAVGGFNGSLRVRTVDSYDPVKDQWTSVANMRDRRSTLGAAVLNGLLYAVGGFDGSTGLSSVEAYNIKSNEWFHVAPMNTRRSSVGVGVVGGLLYAVGGYDGASRQCLSTVECYNATTNEWTYIAEMSTRRSGAGVGVLNNLLYAVGGHDGPLVRKSVEVYDPTTNAWRQVADMNMCRRNAGVCAVNGLLYVVGGDDGSCNLASVEYYNPTTDKWTVVSSCMSTGRSYAGVTVIDKPL
B6: Protein-associating with the carboxyl-terminal domain of ezrin (Homo sapiens), Q8IZE3 (parent)
chain: MGSENSALKSYTLREPPFTLPSGLAVYPAVLQDGKFASVFVYKRENEDKVNKAAKHLKTLRHPCLLRFLSCTVEADGIHLVTERVQPLEVALETLSSAEVCAGIYDILLALIFLHDRGHLTHNNVCLSSVFVSEDGHWKLGGMETVCKVSQATPEFLRSIQSIRDPASIPPEEMSPEFTTLPECHGHARDAFSFGTLVESLLTILNEQVSADVLSSFQQTLHSTLLNPIPKCRPALCTLLSHDFFRNDFLEVVNFLKSLTLKSEEEKTEFFKFLLDRVSCLSEELIASRLVPLLLNQLVFAEPVAVKSFLPYLLGPKKDHAQGETPCLLSPALFQSRVIPVLLQLFEVHEEHVRMVLLSHIEAYVEHFTQEQLKKVILPQVLLGLRDTSDSIVAITLHSLAVLVSLLGPEVVVGGERTKIFKRTAPSFTKNTDLSLEDSPMCVVCSHHSQISPILENPFSSIFPKCFFSGSTPINSKKHIQRDYYNTLLQTGDPFSQPIKFPINGLSDVKNTSEDSENFPSSSKKSEEWPDWSEPEEPENQTVNIQIWPREPCDDVKSQCTTLDVEESSWDDCEPSSLDTKVNPGGGITATKPVTSGEQKPIPALLSLTEESMPWKSSLPQKISLVQRGDDADQIEPPKVSSQERPLKVPSELGLGEEFTIQVKKKPVKDPEMDWFADMIPEIKPSAAFLILPELRTEMVPKKDDVSPVMQFSSKFAAAEITEGEAEGWEEEGELNWEDNNW
partner: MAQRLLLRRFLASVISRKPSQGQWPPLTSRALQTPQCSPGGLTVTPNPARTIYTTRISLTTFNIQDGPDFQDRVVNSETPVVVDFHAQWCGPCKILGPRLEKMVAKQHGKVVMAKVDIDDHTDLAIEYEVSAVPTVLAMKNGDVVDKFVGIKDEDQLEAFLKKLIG
B7: Methylthioribulose-1-phosphate dehydratase (Homo sapiens), Q96GX9 (parent)
chain: MSGCDAREGDCCSRRCGAQDKEHPRYLIPELCKQFYHLGWVTGTGGGISLKHGDEIYIAPSGVQKERIQPEDMFVCDINEKDISGPSPSKKLKKSQCTPLFMNAYTMRGAGAVIHTHSKAAVMATLLFPGREFKITHQEMIKGIKKCTSGGYYRYDDMLVVPIIENTPEEKDLKDRMAHAMNEYPDSCAVLVRRHGVYVWGETWEKAKTMCECYDYLFDIAVSMKKVGLDPSQLPVGENGIV
partner: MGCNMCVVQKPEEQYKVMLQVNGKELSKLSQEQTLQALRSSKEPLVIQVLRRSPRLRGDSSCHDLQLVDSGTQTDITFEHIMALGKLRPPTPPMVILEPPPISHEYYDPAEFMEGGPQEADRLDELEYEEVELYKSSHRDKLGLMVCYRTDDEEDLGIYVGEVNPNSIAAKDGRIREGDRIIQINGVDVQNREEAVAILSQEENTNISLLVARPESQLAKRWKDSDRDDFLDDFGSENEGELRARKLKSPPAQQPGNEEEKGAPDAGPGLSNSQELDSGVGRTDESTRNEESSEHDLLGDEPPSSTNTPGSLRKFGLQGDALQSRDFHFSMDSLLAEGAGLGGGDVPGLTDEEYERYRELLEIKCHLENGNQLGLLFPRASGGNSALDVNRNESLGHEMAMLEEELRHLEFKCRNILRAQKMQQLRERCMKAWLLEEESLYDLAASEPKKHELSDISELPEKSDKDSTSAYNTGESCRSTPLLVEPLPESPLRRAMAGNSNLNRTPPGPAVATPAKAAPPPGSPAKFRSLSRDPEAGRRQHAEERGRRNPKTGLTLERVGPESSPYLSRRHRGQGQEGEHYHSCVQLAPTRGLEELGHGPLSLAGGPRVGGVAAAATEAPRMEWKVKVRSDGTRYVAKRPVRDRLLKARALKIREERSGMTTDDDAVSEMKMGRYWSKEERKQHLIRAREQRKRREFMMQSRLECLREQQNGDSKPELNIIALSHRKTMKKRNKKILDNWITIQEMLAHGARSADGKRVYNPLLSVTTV

In one test the parent is B1. Conditions: with ldoc1_human LDOC1, O95751.
Chain of ldoc1_human LDOC1, O95751 (O95751 whole entry): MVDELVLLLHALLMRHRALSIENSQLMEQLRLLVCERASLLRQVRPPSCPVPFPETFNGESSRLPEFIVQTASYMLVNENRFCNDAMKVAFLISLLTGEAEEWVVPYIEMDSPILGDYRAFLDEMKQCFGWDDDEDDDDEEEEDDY
E183A: the “effect of a mutation on the interaction” value is recorded as “with no effect”.

Variants of B2 are the subject of the next test. The following applies: with cep95_human CEP95, Q96GE4.
As to A89V, the “effect of a mutation on the interaction” value is reported as “with no effect”.

The variants in the next test derive from B3. The following applies: with hook2_human HOOK2, Q96ED9.
Regarding V256M, the “effect of a mutation on the interaction” value is given as “with no effect”.

In the next test the parent is B4. Conditions: with med18_human MED18, Q9BUE0.
For the variant A50T, the “effect of a mutation on the interaction” value is reported as “with no effect”.

Variants of B5 are the subject of a further test. The following applies: with txd12_human TXNDC12, O95881.
Chain of txd12_human TXNDC12, O95881 (O95881 whole entry): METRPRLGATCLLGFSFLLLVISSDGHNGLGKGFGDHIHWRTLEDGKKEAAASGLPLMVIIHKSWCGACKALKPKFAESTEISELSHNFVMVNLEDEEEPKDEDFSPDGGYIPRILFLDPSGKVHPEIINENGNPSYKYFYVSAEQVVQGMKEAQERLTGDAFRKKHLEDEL
In the case of S68A, the “effect of a mutation on the interaction” value is on record as “with no effect”. Regarding A480T, the “effect of a mutation on the interaction” value was “with no effect”.

The variants in another test derive from B5. The following applies: with tma16_human TMA16, Q96EY4.
S68A: the “effect of a mutation on the interaction” value is reported as “with no effect”. Regarding A480T, the “effect of a mutation on the interaction” value is reported as “with no effect”.

A further test covers variants of B5. Conditions: with cul3_human CUL3, Q13618.
Turning to V156I, the “effect of a mutation on the interaction” value is “with no effect”.

Variants of B5 are the subject of the next test. Conditions: with zn114_human ZNF114, Q8NC26.
Chain of zn114_human ZNF114, Q8NC26 (Q8NC26 whole entry): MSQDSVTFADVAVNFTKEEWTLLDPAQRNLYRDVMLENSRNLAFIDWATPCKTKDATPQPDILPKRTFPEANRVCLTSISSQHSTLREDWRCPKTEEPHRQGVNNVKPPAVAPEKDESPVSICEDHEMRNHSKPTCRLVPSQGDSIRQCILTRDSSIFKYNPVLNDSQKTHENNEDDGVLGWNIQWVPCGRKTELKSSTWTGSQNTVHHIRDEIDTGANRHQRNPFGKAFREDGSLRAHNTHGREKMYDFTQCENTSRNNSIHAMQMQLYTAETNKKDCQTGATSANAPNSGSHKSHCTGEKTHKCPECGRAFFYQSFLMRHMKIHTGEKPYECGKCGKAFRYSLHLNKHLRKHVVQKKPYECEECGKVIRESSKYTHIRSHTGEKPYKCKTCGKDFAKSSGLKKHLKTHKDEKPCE
Regarding V156I, the “effect of a mutation on the interaction” value was “with no effect”.

A further test covers variants of B6. Conditions: with thiom_human TXN2, Q99757.
Take Q621R: the “effect of a mutation on the interaction” value is “with no effect”. In the case of L625F, the “effect of a mutation on the interaction” value is given as “with no effect”.

Variants of B7 are the subject of another test. The following applies: with pdzd4_human PDZD4, Q76G19.
For G111A, the “effect of a mutation on the interaction” value is listed as “with no effect”.
